This is an account of results in publication PMC3365488 (Biochemistry, 2012).

For orientation: Kd means the constant that tells how readily two partners part at equilibrium. Lower therefore signals a tighter complex.

The test concerns the target T1, CheY complexed with the unlinked CheA P2 domain (E. coli, UniProt P0AE67 1-129; P07363 156-229).
T1 sequence (looked up) 1: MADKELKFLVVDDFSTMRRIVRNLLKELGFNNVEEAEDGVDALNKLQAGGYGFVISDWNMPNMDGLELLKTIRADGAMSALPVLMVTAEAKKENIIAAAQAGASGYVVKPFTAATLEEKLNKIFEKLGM
T1 sequence (looked up) 2: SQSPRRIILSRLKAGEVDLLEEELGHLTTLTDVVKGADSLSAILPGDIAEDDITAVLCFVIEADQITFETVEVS
Put plainly: NMR titration.

B1: CheA P1 domain (residues 1-134) (domain or fragment, E. coli, UniProt P07363 1-134, looked up)
chain: MSMDISDFYQTFFDEADELLADMEQHLLVLQPEAPDAEQLNAIFRAAHSIKGGAGTFGFSVLQETTHLMENLLDEARRGEMQLNTDIINLFLETKDIMQEQLDAYKQSQEPDAASFDYICQALRQLALEAKGET
On to B1, for which the Kd was around 4.5 mM.
